Data published in patent publication US20150315289A1 (published 2015).

Molecular target: MUC1 (human, UniProt P15941 24-1255, limits assumed)
Assay: immunofluorescence co-localisation on human carcinoma cell lines; MUC5AC siRNA knockdown

B1: humanized PAM4 (hPAM4) IgG (antibody, V domains shown)
VH: QVQLQQSGAEVKKPGASVKVSCEASGYTFPSYVLHWVKQAPGQGLEWIGYINPYNDGTQYNEKFKGKATLTRDTSINTAYMELSRLRSDDTAVYYCARGFGGSYGFAYWGQGTLVTVSS
VL: DIQLTQSPSSLSASVGDRVTMTCSASSSVSSSYLYWYQQKPGKAPKLWIYSTSNLASGVPARFSGSGSGTDFTLTISSLQPEDSASYFCHQWNRYPYTFGGGTRLEIKR
notes: humanized IgG1 kappa; used HRP-conjugated in some ELISAs and blots; also called clivatuzumab; HRP-hPAM4
  binding result: no binding
